Patent US20220235136A1 (YALE UNIVERSITY, published 2022)

T1: human CD93 on cells (CD93-transfected HEK293T cells; endogenous on HUVEC cells) (human, UniProt Q9NPY3 22-652)
T1 construct: in the co-immunoprecipitation it comes from HUVEC lysate; also called CD93 transfectant; CD93+ 293 cells
T1 sequence: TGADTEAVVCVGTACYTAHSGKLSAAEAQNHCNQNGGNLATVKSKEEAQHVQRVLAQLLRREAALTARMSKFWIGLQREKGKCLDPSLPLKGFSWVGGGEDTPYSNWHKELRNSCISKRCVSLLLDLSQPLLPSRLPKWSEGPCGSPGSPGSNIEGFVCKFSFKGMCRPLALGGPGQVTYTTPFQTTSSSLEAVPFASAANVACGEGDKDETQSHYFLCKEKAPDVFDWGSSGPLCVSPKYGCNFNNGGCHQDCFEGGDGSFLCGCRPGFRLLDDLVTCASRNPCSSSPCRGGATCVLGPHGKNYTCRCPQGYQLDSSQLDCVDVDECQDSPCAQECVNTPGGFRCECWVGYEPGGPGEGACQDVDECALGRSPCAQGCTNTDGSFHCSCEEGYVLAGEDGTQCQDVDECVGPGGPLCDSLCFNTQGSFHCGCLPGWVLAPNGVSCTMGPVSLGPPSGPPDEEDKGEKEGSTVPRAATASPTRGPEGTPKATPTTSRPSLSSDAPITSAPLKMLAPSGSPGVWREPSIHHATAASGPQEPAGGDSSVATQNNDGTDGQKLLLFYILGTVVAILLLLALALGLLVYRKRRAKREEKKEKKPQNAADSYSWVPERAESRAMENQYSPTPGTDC

T2: IGFBP7 protein (R&D Systems), labelled with a His-Tag Labeling Kit for MST (human, UniProt Q16270 27-282, RED-tris-NTA fluorescent dye bound to the His tag)
T2 construct: Bought; also called human IGFBP7; not shown: His tag implied by the His-Tag Labeling Kit
T2 sequence: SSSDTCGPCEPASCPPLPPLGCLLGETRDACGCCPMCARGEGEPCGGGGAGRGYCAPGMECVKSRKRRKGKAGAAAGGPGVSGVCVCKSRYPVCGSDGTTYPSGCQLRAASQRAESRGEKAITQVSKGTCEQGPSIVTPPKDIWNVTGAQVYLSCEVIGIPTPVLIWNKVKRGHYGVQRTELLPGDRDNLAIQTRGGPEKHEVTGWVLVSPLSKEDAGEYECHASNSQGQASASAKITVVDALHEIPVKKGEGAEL

B1: IGFBP4 (Fc fusion, human, UniProt P22692 22-258, looked up)
fusion chain: DEAIHCPPCSEEKLARCRPPVGCEELVREPGCGCCATCALGLGMPCGVYTPRCGSGLRCYPPRGVEKPLHTLMHGQGVCMELAEIEAIQESLQPSDKDEGDHPNNSFSPCSAHDRRCLQKHFAKIRDRSTSGGKMKVNGAPREDARPVPQGSCQSELHRALERLAASQSRTHEDLYIIPIPNCDRNGNFHPKQCHPALDGQRGKCWCVDRKTGVKLPGGLEPKGELDCHQLADSFRE
notes: member of the group m19; HEK293T supernatant
B2: recombinant human CD93 protein (R&D Systems) (receptor)
chain: ADTEAVVCVGTACYTAHSGKLSAAEAQNHCNQNGGNLATVKSKEEAQHVQRVLAQLLRREAALTARMSKFWIGLQREKGKCLDPSLPLKGFSWVGGGEDTPYSNWHKELRNSCISKRCVSLLLDLSQPLLPSRLPKWSEGPCGSPGSPGSNIEGFVCKFSFKGMCRPLALGGPGQVTYTTPFQTTSSSLEAVPFASAANVACGEGDKDETQSHYFLCKEKAPDVFDWGSSGPLCVSPKYGCNFNNGGCHQDCFEGGDGSFLCGCRPGFRLLDDLVTCASRNPCSSSPCRGGATCVLGPHGKNYTCRCPQGYQLDSSQLDCVDVDECQDSPCAQECVNTPGGFRCECWVGYEPGGPGEGACQDVDECALGRSPCAQGCTNTDGSFHCSCEEGYVLAGEDGTQCQDVDECVGPGGPLCDSLCFNTQGSFHCGCLPGWVLAPNGVSCTMGPVSLGPPSGPPDEEDKGEKEGSTVPRAATASPTRGPEGTPKATPTTSRPSLSSDAPITSAPLKMLAPSGSPGVWREPSIHHATAASGPQEPAGGDSSVATQNNDGTDGQK
notes: Bought soluble protein
B3: WISP3 (Fc fusion, human, UniProt O95389 24-354, looked up)
fusion chain: TGPLDTTPEGRPGEVSDAPQRKQFCHWPCKCPQQKPRCPPGVSLVRDGCGCCKICAKQPGEICNEADLCDPHKGLYCDYSVDRPRYETGVCAYLVAVGCEFNQVHYHNGQVFQPNPLFSCLCVSGAIGCTPLFIPKLAGSHCSGAKGGKKSDQSNCSLEPLLQQLSTSYKTMPAYRNLPLIWKKKCLVQATKWTPCSRTCGMGISNRVTNENSNCEMRKEKRLCYIQPCDSNILKTIKIPKGKTCQPTFQLSKAEKFVFSGCSSTQSYKPTFCGICLDKRCCIPNKSKMITIQFDCPNEGSFKWKMLWITSCVCQRNCREPGDIFSELKIL
notes: as for B1
B4: IGFBP1 (Fc fusion, human, UniProt P08833 26-259, looked up)
fusion chain: APWQCAPCSAEKLALCPPVSASCSEVTRSAGCGCCPMCALPLGAACGVATARCARGLSCRALPGEQQPLHALTRGQGACVQESDASAPHAAEAGSPESPESTEITEEELLDNFHLMAPSEEDHSILWDAISTYDGSKALHVTNIKKWKEPCRIELYRVVESLAKAQETSGEEISKFYLPNCNKNGFYHSRQCETSMDGEAGLCWCVYPWNGKRIPGSPEIRGDPNCQIYFNVQN
notes: as for B1
B5: IGFBP7 fused to a C-terminal Ig (made in transfected HEK293T cells, used as supernatant) (Fc fusion, not shown: a dimerising Fc or GST; small tags and cut ends)
chain: T2 sequence
notes: also called Fc tagged fusion protein of IGFBP7
B6: Human IGFBP7 (Fc-tag), Sino Biological (Fc fusion)
chain: T2 sequence
notes: Bought; also called IGFBP7-Ig; recombinant IGFBP7 protein; not shown: Fc tag of the bought fusion protein
B7: WISP1 (Fc fusion, human, UniProt O95388 23-367, looked up)
fusion chain: TALSPAPTTMDFTPAPLEDTSSRPQFCKWPCECPPSPPRCPLGVSLITDGCECCKMCAQQLGDNCTEAAICDPHRGLYCDYSGDRPRYAIGVCAQVVGVGCVLDGVRYNNGQSFQPNCKYNCTCIDGAVGCTPLCLRVRPPRLWCPHPRRVSIPGHCCEQWVCEDDAKRPRKTAPRDTGAFDAVGEVEAWHRNCIAYTSPWSPCSTSCGLGVSTRISNVNAQCWPEQESRLCNLRPCDVDIHTLIKAGKKCLAVYQPEASMNFTLAGCISTRSYQPKYCGVCMDNRCCIPYKSKTIDVSFQCPDGLGFSRQVLWINACFCNLSCRNPNDIFADLESYPDFSEIAN
notes: as for B1
B8: IGFBP6 (Fc fusion, human, UniProt P24592 28-240, looked up)
fusion chain: RCPGCGQGVQAGCPGGCVEEEDGGSPAEGCAEAEGCLRREGQECGVYTPNCAPGLQCHPPKDDEAPLRALLLGRGRCLPARAPAVAEENPKESKPQAGTARPQDVNRRDQQRNPGTSTTPSQPNSAGVQDTEMGPCRRHLDSVLQQLQTEVYRGAQTLYVPNCDHRGFYRKRQCRSSQGQRRGPCWCVDRMGKSLPGSPDGNGSSSCPTGSSG
notes: as for B1
B9: CTGF (Fc fusion, human, UniProt P29279 27-349, looked up)
fusion chain: QNCSGPCRCPDEPAPRCPAGVSLVLDGCGCCRVCAKQLGELCTERDPCDPHKGLFCHFGSPANRKIGVCTAKDGAPCIFGGTVYRSGESFQSSCKYQCTCLDGAVGCMPLCSMDVRLPSPDCPFPRRVKLPGKCCEEWVCDEPKDQTVVGPALAAYRLEDTFGPDPTMIRANCLVQTTEWSACSKTCGMGISTRVTNDNASCRLEKQSRLCMVRPCEADLEENIKKGKKCIRTPKISKPIKFELSGCTSMKTYRAKFCGVCTDGRCCTPHRTTTLPVEFKCPDGEVMKKNMMFIKTCACHYNCPGDNDIFESLYYRKMYGDMA
notes: as for B1
B10: IGFBP2 (Fc fusion, human, UniProt P18065 36-325, looked up)
fusion chain: AEVLFRCPPCTPERLAACGPPPVAPPAAVAAVAGGARMPCAELVREPGCGCCSVCARLEGEACGVYTPRCGQGLRCYPHPGSELPLQALVMGEGTCEKRRDAEYGASPEQVADNGDDHSEGGLVENHVDSTMNMLGGGGSAGRKPLKSGMKELAVFREKVTEQHRQMGKGGKHHLGLEEPKKLRPPPARTPCQQELDQVLERISTMRLPDERGPLEHLYSLHIPNCDKHGLYNLKQCKMSLNGQRGECWCVNPNTGKLIQGAPTIRGDPECHLFYNEQQEARGVHTQRMQ
notes: as for B1
B11: ESM1 (Fc fusion, human, UniProt Q9NQ30 20-184, looked up)
fusion chain: WSNNYAVDCPQHCDSSECKSSPRCKRTVLDDCGCCRVCAAGRGETCYRTVSGMDGMKCGPGLRCQPSNGEDPFGEEFGICKDCPYGTFGMDCRETCNCQSGICDRGTGKCLKFPFFQYSVTKSSNRFVSLTEHDMASGDGNIVREEVVKENAAGSPVMRKWLNPR
notes: as for B1
B12: NOV (Fc fusion, not shown: a dimerising Fc or GST; small tags and cut ends)
chain: TQRCPPQCPGRCPATPPTCAPGVRAVLDGCSCCLVCARQRGESCSDLEPCDESSGLYCDRSADPSNQTGICTAVEGDNCVFDGVIYRSGEKFQPSCKFQCTCRDGQIGCVPRCQLDVLLPEPNCPAPRKVEVPGECCEKWICGPDEEDSLGGLTLAAYRPEATLGVEVSDSSVNCIEQTTEWTACSKSCGMGFSTRVTNRNRQCEMLKQTRLCMVRPCEQEPEQPTDKKGKKCLRTKKSLKAIHLQFKNCTSLHTYKPRFCGVCSDGRCCTPHNTKTIQAEFQCSPGQIVKKPVMVIGTCTCHTNCPKNNEAFLQELELKTTRGKM
notes: as for B1
B13: CYR61 (Fc fusion, human, UniProt O00622 25-381, looked up)
fusion chain: TCPAACHCPLEAPKCAPGVGLVRDGCGCCKVCAKQLNEDCSKTQPCDHTKGLECNFGASSTALKGICRAQSEGRPCEYNSRIYQNGESFQPNCKHQCTCIDGAVGCIPLCPQELSLPNLGCPNPRLVKVTGQCCEEWVCDEDSIKDPMEDQDGLLGKELGFDASEVELTRNNELIAVGKGSSLKRLPVFGMEPRILYNPLQGQKCIVQTTSWSQCSKTCGTGISTRVTNDNPECRLVKETRICEVRPCGQPVYSSLKKGKKCSKTKKSPEPVRFTYAGCLSVKKYRPKYCGSCVDGRCCTPQLTRTVKMRFRCEDGETFSKNVMMIQSCKCNYNCPHANEAAFPFYRLFNDIHKFRD
notes: as for B1
B14: KAZALD1 (Fc fusion, human, UniProt Q96I82 31-304, looked up)
fusion chain: RPSPGPDYLRRGWMRLLAEGEGCAPCRPEECAAPRGCLAGRVRDACGCCWECANLEGQLCDLDPSAHFYGHCGEQLECRLDTGGDLSRGEVPEPLCACRSQSPLCGSDGHTYSQICRLQEAARARPDANLTVAHPGPCESGPQIVSHPYDTWNVTGQDVIFGCEVFAYPMASIEWRKDGLDIQLPGDDPHISVQFRGGPQRFEVTGWLQIQAVRPSDEGTYRCLGRNALGQVEAPASLTVLTPDQLNSTGIPQLRSLNLVPEEEAESEENDDYY
notes: as for B1

Columns and labels:
[1] = molecular target: T1, human CD93 on cells (CD93-transfected …); test: flow cytometry, HEK293T supernatant of the Fc-tagged protein on CD93 transfectant; binding index = MFI of CD93 transfectant / MFI of control cells
[2] = molecular target: T2, IGFBP7 protein (R&D Systems), labelled …; test: microscale thermophoresis (MST), CD93 titrated against 10 nM labelled IGFBP7
[3] = molecular target: T1, human CD93 on cells (CD93-transfected …); test: flow cytometry, HEK293T supernatant on CD93 transfectant; binding index = MFI of CD93 transfectant / MFI of control
[4] = molecular target: T1, human CD93 on cells (CD93-transfected …); test: flow cytometry, IGFBP7-Ig on CD93-transduced or control HEK293T cells

Binder | binding result [1] | other results
B1 | no binding | 
B2 |  | EC50 (read off the curve) [2]: ~50 nM
B3 | no binding | 
B4 | no binding | 
B5 |  | binding result [3]: binds
B6 |  | binding result [4]: binds
B7 | no binding | 
B8 | no binding | 
B9 | no binding | 
B10 | no binding | 
B11 | no binding | 
B12 | no binding | 
B13 | no binding | 
B14 | no binding | 
